Laboratory results reported in publication PMC7721647, “The Human RNA Helicase DDX21 Presents a Dimerization Interface Necessary for Helicase Activity” (iScience, 2020).

Biological target: T1, DDX21Fl (human, UniProt Q9NR30 1-783)
T1 sequence: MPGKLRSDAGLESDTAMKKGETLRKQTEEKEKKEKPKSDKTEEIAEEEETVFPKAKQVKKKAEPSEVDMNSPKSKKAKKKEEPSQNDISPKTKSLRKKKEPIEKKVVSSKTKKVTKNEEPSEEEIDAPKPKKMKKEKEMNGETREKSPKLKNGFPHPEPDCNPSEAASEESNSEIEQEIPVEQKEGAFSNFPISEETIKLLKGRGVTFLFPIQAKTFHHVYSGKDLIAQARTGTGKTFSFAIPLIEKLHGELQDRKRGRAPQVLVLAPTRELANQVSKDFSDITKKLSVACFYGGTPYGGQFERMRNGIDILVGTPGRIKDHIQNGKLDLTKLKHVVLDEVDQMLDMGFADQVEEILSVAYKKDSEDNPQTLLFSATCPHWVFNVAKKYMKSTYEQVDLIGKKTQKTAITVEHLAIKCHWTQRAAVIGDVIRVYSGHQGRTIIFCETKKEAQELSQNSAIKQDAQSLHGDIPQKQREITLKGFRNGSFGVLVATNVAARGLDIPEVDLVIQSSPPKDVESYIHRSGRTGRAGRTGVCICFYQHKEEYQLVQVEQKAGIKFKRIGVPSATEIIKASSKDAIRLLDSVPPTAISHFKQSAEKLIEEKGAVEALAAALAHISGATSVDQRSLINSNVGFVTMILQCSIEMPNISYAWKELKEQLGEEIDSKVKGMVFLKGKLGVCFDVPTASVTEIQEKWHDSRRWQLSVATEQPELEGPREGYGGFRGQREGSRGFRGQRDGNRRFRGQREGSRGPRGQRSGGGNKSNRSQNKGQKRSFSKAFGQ
Experiment: fluorescence polarization; no ATP; 50 mM KCl; FP: 50 mM Tris pH 7.5, 50 mM KCl, 5 mM MgCl2, no ATP; Hill-slope fit; temperature not given in the material
Details: protein: recombinant; tags: N-terminal Trx-His6, cut with thrombin; chain copies: 2; label: 5'-FAM; G4

B1: Q2 RNA G-quadruplex (structured_RNA)
RNA: GUUGGGGCGGGCGUUGGGUUUGGGGGGACG
  Kd: 2.6 ± 0.1 nM
